Test results published in patent publication US20160279215A1, “NOVEL PEPTIDES AND COMBINATION OF PEPTIDES FOR USE IN IMMUNOTHERAPY AGAINST VARIOUS TUMORS” (immatics biotechnologies GmbH, priority 2015, published 2016).

Molecular target: T1, HLA-A*02:01 (human)
T1 construct: MHC monomers captured on streptavidin plates; the UV-sensitive peptide is cleaved and exchanged with the test peptide; also called peptide-receptive MHC molecules; MHC class I
Test: UV ligand-exchange ELISA (anti-b2m); +++ = exchange yield >=50
Text: Candidate peptides for T cell based therapies according to the present invention were further tested for their MHC binding capacity (affinity). The individual peptide-MHC complexes were produced by UV-ligand exchange, where a UV-sensitive peptide is cleaved upon UV-irradiation, and exchanged with the peptide of interest as analyzed. Only peptide candidates that can effectively bind and stabilize the peptide-receptive MHC molecules prevent dissociation of the MHC complexes. To determine the yield of the exchange reaction, an ELISA was performed based on the detection of the light chain (β2m) of stabilized MHC complexes. The assay was performed as generally described in Rodenko et al. (Rodenko et al., 2006).
96 well MAXISorp plates (NUNC) were coated over night with 2 ug/ml streptavidin in PBS at room temperature, washed 4× and blocked for 1 h at 37° C. in 2% BSA containing blocking buffer. Refolded HLA-A*02:01/MLA-001 monomers served as standards, covering the range of 15-500 ng/ml. Peptide-MHC monomers of the UV-exchange reaction were diluted 100 fold in blocking buffer. Samples were incubated for 1 h at 37° C., washed four times, incubated with 2 ug/ml HRP conjugated anti-β2m for 1 h at 37° C., washed again and detected with TMB solution that is stopped with […]. Absorption was measured at 450 nm. Candidate peptides that show a high exchange yield (preferably higher than 50%, most preferred higher than 75%) are generally preferred for a generation and production of antibodies or fragments thereof, and/or T cell receptors or fragments thereof, as they show sufficient avidity to the MHC molecules and prevent dissociation of the MHC complexes.

| Binder | peptide exchange yield [%] |
| --- | --- |
| LLWPSSVPA | 50 to 75 |
| ALSELERVL | 50 to 75 |
| ALHPVQFYL | 50 to 75 |
| LLFDWSGTGRADA | 50 to 75 |
| RVIDDSLVVGV | 50 to 75 |
| ALLSPLSLA | 50 to 75 |
| FLPQPVPLSV | 50 to 75 |
| SLAGNLQEL | 50 to 75 |
| SLLELDGINLRL | 50 to 75 |
| KLLNMIFSI | 50 to 75 |
| LLDDIFIRL | 50 to 75 |
| SLFESLEYL (also called ZFP42-001) | 50 to 75 |
| KVWSDVTPL (also called MMP-002) | 50 to 75 |
| KMSELQTYV | 50 to 75 |
| ALLEQTGDMSL | 50 to 75 |
| VIIKGLEEITV | 50 to 75 |
| KQFEGTVEI | 50 to 75 |
| KLQEEIPVL | 50 to 75 |
| NVAEIVIHI | 50 to 75 |
| ALAGIVTNV | 50 to 75 |
| LLWGHPRVALA (also called MXRA5-003) | 50 to 75 |
| VLMQDSRLYL | 50 to 75 |

| Binder | peptide exchange yield [%] |
| --- | --- |
| YLYQILQGI | 50 to 75 |
| LMQDSRLYL | 50 to 75 |
| LLWGNLPEI | 50 to 75 |
| KLLAVIHEL (also called RAD54B-002) | 50 to 75 |
| FLMKNSDLYGA | 50 to 75 |
| FLNDIFERI | 50 to 75 |
| VLDGKVAVV | 50 to 75 |
| KLIDHQGLYL | 50 to 75 |
| ALNESLVEC | 50 to 75 |
| GLAALAVHL | 50 to 75 |
| LLLEAVWHL | 50 to 75 |
| SIIEYLPTL | 50 to 75 |
| FLLDKPQDLSI | 50 to 75 |
| GLLGKVTSV | 50 to 75 |
| YLLDMPLWYL | 50 to 75 |
| TLLTFFHEL | 50 to 75 |
| VLIEYNFSI | 50 to 75 |
| TLYNPERTITV (also called IGF-004) | 50 to 75 |
| RMPTVLQCV | 50 to 75 |
| KLQEELNKV | 50 to 75 |
| VLEDKVLSV | 50 to 75 |
| HLWGHALFL | 50 to 75 |

| Binder | peptide exchange yield [%] |
| --- | --- |
| ALSELLQQV | 50 to 75 |
| MLLDTVQKV | 50 to 75 |
| FLTEMVHFI | 50 to 75 |
| IITEVITRL | 50 to 75 |
| GLLETTGLLAT | 50 to 75 |
| VLFGELPAL | 50 to 75 |
| TLNTLDINL | 50 to 75 |
| TVLQELINV | 50 to 75 |
| YLEDGFAYV | 50 to 75 |
| KIWEELSVLEV (also called MAGEA3-003) | 50 to 75 |
| IVTEIISEI | 50 to 75 |
| AVFNLVHVV | 50 to 75 |
| GLVDIMVHL | 50 to 75 |
| FLPVSVVYV | 50 to 75 |
| GLNGFNVLL | 50 to 75 |
| KISDFGLATV | 50 to 75 |
| ILLSVLHQL | 50 to 75 |
| YLVPGLVAA | 50 to 75 |
| HLFDKIIKI | 50 to 75 |
| HLLGEGAFAQV | 50 to 75 |
| ALADGIKSFLL | 50 to 75 |
| YLFSQGLQGL | 50 to 75 |
